Experimental data as given in PMC3124363 (Nature chemical biology, 2011).
Values belong to the binder of their own block, whether it stands above or below them.

Target: GST-Cdk1/GST-cyclin B1 complex (UniProt P06493 1-297; P14635 1-433)
Assay: cell-based or functional assay

Chain of GST-Cdk1/GST-cyclin B1 complex (P06493 whole entry, chain 1 of 2): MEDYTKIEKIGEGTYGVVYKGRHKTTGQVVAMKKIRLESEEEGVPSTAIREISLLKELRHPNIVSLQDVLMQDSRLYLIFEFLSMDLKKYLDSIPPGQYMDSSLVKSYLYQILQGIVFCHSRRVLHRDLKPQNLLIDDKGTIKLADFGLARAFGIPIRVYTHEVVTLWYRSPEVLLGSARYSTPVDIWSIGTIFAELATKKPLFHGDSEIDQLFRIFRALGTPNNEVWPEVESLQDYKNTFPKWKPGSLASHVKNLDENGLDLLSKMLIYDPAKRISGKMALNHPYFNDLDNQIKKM
Chain of GST-Cdk1/GST-cyclin B1 complex (P14635 whole entry, chain 2 of 2): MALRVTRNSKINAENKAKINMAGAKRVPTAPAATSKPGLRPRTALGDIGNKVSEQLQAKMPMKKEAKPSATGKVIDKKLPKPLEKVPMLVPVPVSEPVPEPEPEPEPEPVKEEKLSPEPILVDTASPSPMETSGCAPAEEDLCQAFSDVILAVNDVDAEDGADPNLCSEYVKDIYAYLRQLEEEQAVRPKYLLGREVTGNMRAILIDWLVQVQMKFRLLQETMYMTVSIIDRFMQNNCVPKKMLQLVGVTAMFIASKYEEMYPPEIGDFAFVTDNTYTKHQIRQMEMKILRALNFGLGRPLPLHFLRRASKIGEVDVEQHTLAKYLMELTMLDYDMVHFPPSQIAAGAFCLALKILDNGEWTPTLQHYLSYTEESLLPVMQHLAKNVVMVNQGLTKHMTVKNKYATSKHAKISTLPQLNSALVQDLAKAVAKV

IC50 of inhibition of Cdk1/cyclin B1 kinase activity in vitro (substrate Rb^C): 218 nM
B1: p21-KID-LH−3 (p21-KID with sub-domain LH shortened by three residues) (domain or fragment, human, UniProt P38936 9-84, looked up)
chain: RQNPCGSKACRRLFGPVDSEQLSRDCDALMAGCIQEAWNFDFVTETPLEGDFAWERVRGLGLPKLYLPTGPRR

IC50 of inhibition of Cdk1/cyclin B1 kinase activity in vitro (substrate Rb^C): 71 nM
B2: p21-KID-LH+3 (p21-KID with sub-domain LH lengthened by three residues) (domain or fragment, human, UniProt P38936 9-84, looked up)
chain: RQNPCGSKACRRLFGPVDSEQLSRDCDALMAGCIQEARERALRWNFDFVTETPLEGDFAWERVRGLGLPKLYLPTGPRR
